Data taken from patent US20060228350A1 (AstraZeneca / MedImmune, published 2006).

Assays:
[1] = target: Human EphA2-Fc fusion protein (human EphA2 fused with the Fc portion of a human IgG1) (human) (UniProt P29317); test: single point capture ELISA, 1 µg goat anti-human Fd, biotinylated EphA2-Fc 300-600 ng/well
[2] = target: Human EphA2-Fc fusion protein (human EphA2 fused with the Fc portion of a human IgG1) (human) (UniProt P29317); test: single point capture ELISA, 500 ng goat anti-human Fab; same plate as VH-233/VL-8G7
[3] = target: Human EphA2-Fc fusion protein (human EphA2 fused with the Fc portion of a human IgG1) (human) (UniProt P29317); test: single point capture ELISA, 500 ng goat anti-human Fab; same plate as VH-7E8/VL-8G7
[4] = target: Human EphA2-Fc fusion protein (human EphA2 fused with the Fc portion of a human IgG1) (human) (UniProt P29317); test: single point capture ELISA, 500 ng goat anti-human Fab; same plate as VH-233/VL-12C8
[5] = target: Human EphA2-Fc fusion protein (human EphA2 fused with the Fc portion of a human IgG1) (human) (UniProt P29317); test: single point capture ELISA, 500 ng goat anti-human Fab; same plate as VH-2G6/VL-12C8
[6] = target: Human EphA2-Fc fusion protein (human EphA2 fused with the Fc portion of a human IgG1) (human) (UniProt P29317); test: single point capture ELISA, 500 ng goat anti-human Fab; same plate as VH-6H11/VL-8G7
[7] = target: Human EphA2-Fc fusion protein (human EphA2 fused with the Fc portion of a human IgG1) (human) (UniProt P29317); test: single point capture ELISA, 20 ng goat anti-human Fab, biotinylated EphA2-Fc 300 ng/well
[8] = target: Human EphA2-Fc fusion protein (human EphA2 fused with the Fc portion of a human IgG1) (human) (UniProt P29317); test: single point capture ELISA, 100 ng goat anti-human Fab, biotinylated EphA2-Fc 300 ng/well
[9] = target: Human EphA2-Fc fusion protein (human EphA2 fused with the Fc portion of a human IgG1) (human) (UniProt P29317); test: single point capture ELISA, 500 ng goat anti-human Fab, biotinylated EphA2-Fc 300 ng/well
[10] = target: Human EphA2-Fc fusion protein (human EphA2 fused with the Fc portion of a human IgG1) (human) (UniProt P29317); test: as above; remark: listed apart in the source
[11] = target: Human EphA2-Fc fusion protein (human EphA2 fused with the Fc portion of a human IgG1) (human) (UniProt P29317); test: as above; remark: listed apart in the source
[12] = target: Human EphA2-Fc fusion protein (human EphA2 fused with the Fc portion of a human IgG1) (human) (UniProt P29317); test: single point capture ELISA, periplasmic extracts from 15 ml culture, 500 ng goat anti-human Fab
[13] = target: Human EphA2-Fc fusion protein (human EphA2 fused with the Fc portion of a human IgG1) (human) (UniProt P29317); test: single point capture ELISA, periplasmic Fab on 500 ng goat anti-human Fab, biotinylated EphA2-Fc 300 ng/well
[14] = target: T1, Human EphA2-Fc fusion protein (human EphA2 fused with the Fc portion of a human IgG1) (human, UniProt P29317 24-534, limits assumed); test: BIAcore, human IgG1 format on immobilized EphA2-Fc
T1 construct: also called biotinylated human EphA2-Fc; not shown: Fc portion of a human IgG1

[15] = target: T1, Human EphA2-Fc fusion protein (human …); test: SPR (BIAcore 3000), EphA2-Fc coupled to CM5 chip, IgG in solution, koff/kon
Experimental: (§1) IgGs were diluted in 0.01 M HEPES pH 7.4 containing 0.15 M NaCl, 3 mM EDTA and 0.005% P20. All subsequent dilutions were made in the same buffer. All binding experiments were performed at 25° C. with IgG concentrations typically ranging from 100 nM to 0.2 nM at a flow rate of 75 μL/min; data were collected for approximately 25 min and one 1-min pulse of 1 M NaCl, 50 mM NaOH was used to regenerate the surfaces. IgGs were also flowed over an uncoated cell and the sensorgrams from these blank runs subtracted from those obtained with EphA2-Fc-coupled chips. Data were fitted to a 1:1 Langmuir binding model. This algorithm calculates both the kₒₙ and the koff, from which the apparent equilibrium dissociation constant, KD, is deduced as the ratio of the two rate constants (koff/kₒₙ).

[16] = target: T1, Human EphA2-Fc fusion protein (human …); test: SPR (BIAcore 3000), EphA2-Fc coupled to CM5 chip, IgG in solution, 1:1 Langmuir fit
Experimental: as §1

[17] = target: T1, Human EphA2-Fc fusion protein (human …); test: SPR (BIAcore 3000), EphA2-Fc coupled to CM5 chip (~500 RU), IgG in solution, koff/kon
Experimental: (§2) EphA2-Fc was coupled to the dextran matrix of a CM5 sensor chip (Pharmacia Biosensor) using an Amine Coupling Kit as described (B. Johnsson et al., 1991, Anal. Biochem. 198: 268-277) at a surface density of approximately 500 RU. IgGs were diluted in 0.01 M HEPES pH 7.4 containing 0.15 M NaCl, 3 mM EDTA and 0.005% P20. All subsequent dilutions were made in the same buffer. All binding experiments were performed at 25° C. with IgG concentrations typically ranging from 100 nM to 0.2 nM at a flow rate of 75 μL/min; data were collected for approximately 25 min and two 30-sec pulse of 1M NaCl, 50 mM NaOH was used to regenerate the surfaces. IgGs were also flowed over an uncoated cell and the sensorgrams from these blank runs subtracted from those obtained with EphA2-Fc-coupled chips. Data were fitted to a 1:1 Langmuir binding model. This algorithm calculates both the kₒₙ and the koff, from which the apparent equilibrium dissociation constant, KD, is deduced as the ratio of the two rate constants (koff/kₒₙ).

[18] = target: T1, Human EphA2-Fc fusion protein (human …); test: SPR (BIAcore 3000), EphA2-Fc coupled to CM5 chip (~500 RU), IgG in solution, 1:1 Langmuir fit
Experimental: as §2

Sequence of Human EphA2-Fc fusion protein (human EphA2 fused with the Fc portion of a human IgG1) (human) (P29317 24-534 limits assumed): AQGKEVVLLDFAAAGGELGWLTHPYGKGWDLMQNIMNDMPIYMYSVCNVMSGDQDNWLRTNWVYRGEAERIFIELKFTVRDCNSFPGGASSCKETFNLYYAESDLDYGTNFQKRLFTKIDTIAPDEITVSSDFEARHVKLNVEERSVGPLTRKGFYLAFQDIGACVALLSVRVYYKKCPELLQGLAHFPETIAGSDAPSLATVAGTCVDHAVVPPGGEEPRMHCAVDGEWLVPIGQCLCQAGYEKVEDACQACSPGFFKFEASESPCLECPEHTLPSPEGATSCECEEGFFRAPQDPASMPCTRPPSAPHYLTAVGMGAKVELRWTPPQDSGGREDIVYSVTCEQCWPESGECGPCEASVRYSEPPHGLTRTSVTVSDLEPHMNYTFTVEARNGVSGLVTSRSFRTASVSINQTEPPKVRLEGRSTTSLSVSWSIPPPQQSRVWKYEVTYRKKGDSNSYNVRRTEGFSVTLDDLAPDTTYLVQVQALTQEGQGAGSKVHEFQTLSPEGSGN
T1 sequence (P29317 24-534 limits assumed): as above

## irrelevant antibody (background control of Example 2)
[1]
  OD450 (background signal): 0.3 OD450

## irrelevant antibody (MEDI-493)
[2]
  OD450 (background signal): 0.2 OD450
[3]
  OD450 (background signal): 0.2 OD450
[4]
  OD450 (background signal): 0.1 OD450
[5]
  OD450 (background signal): 0.3 OD450
[6]
  OD450 (background signal): 0.2 OD450
[7]
  OD450 (background signal): 0.1 OD450
[8]
  OD450 (background signal): 0.1 to 0.4 OD450
[9]
  OD450 (background signal): 0.06 to 0.2 OD450
[10]
  OD450 (background signal): 0.3 OD450
[11]
  OD450 (background signal): 0.07 to 0.1 OD450

B1: VH-2G6/VL-12C8 Fab (framework-shuffled, fully humanized clone from library B) (Fab, from another filing, V domains shown)
VH: EVQLVESGGGVVRPGGSLRLSCAASGFTVSDYSMNWVRQAPGKGLEWIGFIRNKANDYTTEYSASVKGRFTISRDDSKNTLYLQMNSLKTEDTAVYYCTTYPRYHAMDSWGQGTMVTVSS
VL: AIQLTQSPSSLSASVGDRVTITCRASQSISNNLHWYLQKPGQSPQLLIYYVFQSISGVPSRFSGSGSGTDFTLTISSLQPEDFATYYCQQSNSWPLTFGGGTKLEIK
[12]
  [specific OD450/background OD450] ratio: 40
[13]
  OD450: 2.8 OD450

B2: VH-2G6/VL-12C8 (humanized) full length human IgG1 (antibody, V domains shown)
VH: EVQLVESGGGVVRPGGSLRLSCAASGFTVSDYSMNWVRQAPGKGLEWIGFIRNKANDYTTEYSASVKGRFTISRDDSKNTLYLQMNSLKTEDTAVYYCTTYPRYHAMDSWGQGTMVTVSS
VL: AIQLTQSPSSLSASVGDRVTITCRASQSISNNLHWYLQKPGQSPQLLIYYVFQSISGVPSRFSGSGSGTDFTLTISSLQPEDFATYYCQQSNSWPLTFGGGTKLEIK
notes: Human IgG1 / human kappa, expressed in HEK 293 cells
[14]
  fold avidity decrease against parental mAb B233: 10 fold
[15]
  Kd: 3 nM
[16]
  koff: 0.00019 s⁻¹
  kon: 64000 M⁻¹ s⁻¹

B3: VH-6H11/VL-8G7 (humanized) full length human IgG1 (antibody, V domains shown)
VH: EVQLVESGGGLVQPGGSLRLSCAASGFTFSDYSMNWVRQAPGKGLEWVAFIRNKANDYTTEYSASVKGRFTISRDNSKNTLYLQMNSLRAEDTAMYYCARYPRYHAMDSWGQGTLVTVSS
VL: EIVLTQSPATLSVSPGERATLSCRASQSISNNLHWYQQKPGKAPKSLIYYVFQSISGVPSRFSGSGSGTDFTLTINSLEAEDAATYYCQQSNSWPLTFGGGTKVDIK
notes: as for B2
[14]
  fold avidity decrease against parental mAb B233: 6 fold
[15]
  Kd: 1.9 nM
[16]
  koff: 0.00018 s⁻¹
  kon: 96000 M⁻¹ s⁻¹

B4: VH-7E8/VL-8G7 (humanized) full length human IgG1 (antibody, V domains shown)
VH: EVQLVESGGGLVKPGGSLRLSCAASGFTFSDYSMNWVRQASGKGLEWVGFIRNKANDYTTEYSASVKGRFTISRDDSKNTLYLQMNSLKTEDTAVYYCTTYPRYHAMDSWGQGTLVTVSS
VL: EIVLTQSPATLSVSPGERATLSCRASQSISNNLHWYQQKPGKAPKSLIYYVFQSISGVPSRFSGSGSGTDFTLTINSLEAEDAATYYCQQSNSWPLTFGGGTKVDIK
notes: as for B2
[14]
  fold avidity decrease against parental mAb B233: 160 fold
[15]
  Kd: 48 nM
[16]
  koff: 0.00045 s⁻¹
  kon: 9300 M⁻¹ s⁻¹

B5: mAb EA2 (mouse anti-human EphA2 monoclonal antibody) (antibody, V domains shown)
VH: DVKLVESGGGLVKPGGSLKLSCAASGFTFSSYTMSWVRQTPEKRLEWVATISSGGTYTYYPDSVKGRFTISRDNAKNTLYLQMSSLKSEDTAMYYCTREAIFTYWGQGTLVTVSA
VL: DIKMTQSPSSMYASLGERVTITCKASQDINNYLSWFQQKPGKSPKTLIYRANRLVDGVPSRFSGSGSGQDYSLTISSLEYEDMGIYYCLKYDEFPYTFGGGTKLEIK
notes: Murine hybridoma antibody; also called EA2 (murine); parental mAb EA2
[17]
  Kd: 5.94 nM
[18]
  koff: 0.00307 s⁻¹
  kon: 517000 M⁻¹ s⁻¹

B6: mAb B233 (mouse anti-human EphA2 monoclonal antibody) (antibody, V domains shown)
VH: EVKLVESGGGLVQPGGSLSLSCAASGFTFTDYSMNWVRQPPGKALEWLGFIRNKANDYTTEYSASVKGRFTISRDNSQSILYLQMNALRAEDSATYYCVRYPRYHAMDSWGQGTSVTVSS
VL: DIVLTQSPATLSVTPGDSVNLSCRASQSISNNLHWYQQKSHESPRLLIKYVFQSISGIPSRFSGSGSGTDFTLSINSVETEDFGMYFCQQSNSWPLTFGAGTKLELK
notes: Murine hybridoma antibody; also called B233 (murine); parental mAb B233
[15]
  Kd: 0.4 nM
[16]
  koff: 0.00011 s⁻¹
  kon: 280000 M⁻¹ s⁻¹

B7: VH-233/VL-233 IgG (chimaeric form of mAb B233, full length human IgG1) (antibody, V domains shown)
VH: EVKLVESGGGLVQPGGSLSLSCAASGFTFTDYSMNWVRQPPGKALEWLGFIRNKANDYTTEYSASVKGRFTISRDNSQSILYLQMNALRAEDSATYYCVRYPRYHAMDSWGQGTSVTVSS
VL: DIVLTQSPATLSVTPGDSVNLSCRASQSISNNLHWYQQKSHESPRLLIKYVFQSISGIPSRFSGSGSGTDFTLSINSVETEDFGMYFCQQSNSWPLTFGAGTKLELK
notes: Human IgG1 / human kappa constant regions, expressed in HEK 293 cells; also called VH-B233/VL-B233 (chimeric); chimaeric B233
[15]
  Kd: 0.3 nM
[16]
  koff: 8e-05 s⁻¹
  kon: 240000 M⁻¹ s⁻¹

B8: VH-4H5/VL-4H5 full length human IgG1 (antibody, V domains shown)
VH: QVQLLESGGGLVQPGGSLRLSCAASGFTFSSYTMSWVRQAPGQALEWMGTISSGGTYTYYPDSVKGRFTISRDNAKNSLYLQMNSLRAEDTAVYYCAREAIFTYWGRGTLVTVSS
VL: DIQLTQSPSSLSASVGDRVTITCKASQDINNYLSWYQQKPGQAPRLLIYRANRLVDGVPDRFSGSGYGTDFTLTINNIESEDAAYYFCLKYDVFPYTFGQGTKVEIK
notes: as for B2
[14]
  fold avidity increase against parental mAb EA2: 90 fold
[17]
  Kd: 0.067 nM
[18]
  koff: 6.6e-05 s⁻¹
  kon: 980000 M⁻¹ s⁻¹

B9: VH-4H5/VL-“corrected” 4H5 full length human IgG1 (antibody, V domains shown)
VH: QVQLLESGGGLVQPGGSLRLSCAASGFTFSSYTMSWVRQAPGQALEWMGTISSGGTYTYYPDSVKGRFTISRDNAKNSLYLQMNSLRAEDTAVYYCAREAIFTYWGRGTLVTVSS
VL: DIQLTQSPSSLSASVGDRVTITCKASQDINNYLSWYQQKPGQAPRLLIYRANRLVDGVPDRFSGSGYGTDFTLTINNIESEDAAYYFCLKYDEFPYTFGQGTKVEIK
notes: Human IgG1 / human kappa, expressed in HEK 293 cells; also called 4H5 corrected
[14]
  fold avidity increase against parental mAb EA2: 4 fold
[17]
  Kd: 1.4 nM
[18]
  koff: 0.00105 s⁻¹
  kon: 750000 M⁻¹ s⁻¹
